Experimental data: patent US8623366B2, “Methods for treating visceral pain by administering antagonist antibodies directed against calcitonin gene-related peptide” (Labrys Biologics, Inc., priority 2009, dated 2014)
Where a chain is given by its changes, count along the chain named.

Legend:
[1] = cited from earlier work
[2] = system: TNBS treated rats; test: Rat TNBS colitis visceral pain model, balloon distension of the colon; assay type: in vivo; conditions: intravenous, FIG. 1A and 1B
Experimental: Colorectal distension after TNBS-induced colitis in rats is an animal model that has been used by many researchers to explore the mechanisms of visceral hypersensitivity (Gay et al, 2006, Delafoy et al, 2006, Adam et al., 2006). In this Example, the rat TNBS colitis model was used to test the effect of a function-blocking antibody for CGRP. In the model, as in the human IBS studies, the visceral pain threshold is measured by response to balloon distension of the colon.
After overnight fasting, rats were anesthetized with ketamine (80 mg/ml)/xylazine (12 mg/ml) at a dosage of 1 ml/kg. An abdominal laparotomy was performed and a TNBS solution (50 mg at 1.5 ml/kg in 30% ethanol, “TNBS treatment group”) or 30% ethanol solution (“sham group”) was injected into the proximal colon 1 cm distal from ceacum. The sham group was used as a non-colitis control. […]
The seventh day following surgery, after a second overnight fast, TNBS treated rats sustaining a weight loss of no greater than 11% were tested for visceral pain threshold with balloon distension. […] Balloon distension was halted at the threshold pressure required to elicit a stereotypical rodent visceral pain posture known as the alpha position (repeated waves of contraction of oblique musculature with inward turning of the hindpaw) and this was recorded as the visceral pain threshold.

[3] = system: visceral hypersensitivity (VH); conditions: systemically injected; Delafoy 2006, Plourde 1997, Julia and Bueno 1997; cited from earlier work
[4] = molecular target: T1, human α-CGRP (Homo sapiens, UniProt P06881); conditions: Table 6 reproduced from WO2007/054809; cited from earlier work
T1 sequence (P06881 83-119 limits assumed): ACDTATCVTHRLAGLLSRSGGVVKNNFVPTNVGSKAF

[5] = molecular target: T2, rat β-CGRP (Rattus norvegicus, UniProt P10093, R105S); test: Biacore interaction analysis of Fab fragments, N-biotin β-rat CGRP on chip; assay type: binding; conditions: β-rat CGRP, 37° C., Fab, 20 min dissociation
T2 sequence (P10093 89-125 R105S limits assumed): T1 sequence (P06881 83-119 limits assumed) with A1S, D3N, N25D
Experimental: (§1) Interaction analysis was conducted at 25° C. and at 37° C. on a Biacore 3000™ system equipped with streptavidin-coated (SA) sensor chips (Biacore AB, Uppsala, Sweden) using standard Biacore running buffers (HBS-P or HBS-EP). N-LC-biotinylated human and rat α- and β-CGRPs were captured on individual flow cells at low levels (typically 100 response units) to provide the reaction surfaces, while an unmodified flow cell served as a reference channel. Purified Fab fragments of antibodies G1 and G2 were generated. Typically, Fabs were prepared as a two-fold serial dilution using 0.5 μM as the top concentration and injected for 1-min at 100 μl/min allowing up to two hours for the dissociation time. Surfaces were regenerated with a mixture of 50% v/v ethanol+25 mM NaOH for G1 Fab and 2:1 v/v Pierce Gentle Elution Buffer/4M NaCl for G2 Fab. […] The binding responses were double-referenced and fit globally to a simple model using BiaEvaluation v. 4.0 software. Affinities were deduced from the quotient of the kinetic rate constants (KD=koff/kon).
(§2) As such, the offrate (koff) cannot be measured accurately unless the dissociation phase is monitored for a very long time. As a general rule-of-thumb, the binding response decays at least 5% over the allowed dissociation time for the report of an accurate offrate. However, monitoring long dissociation times on the Biacore is hindered by baseline drift, which is particularly challenging when working at the low surface capacities required for kinetic analyses. In this study, the dissociation phase was followed for two hours over the α-CGRPs but only 20 mins over the β-CGRPs. As a result, the offrates for β-CGRPs cannot be resolved as accurately as those for α-CGRPs.
The results for antibody G2 are expressed in Table 2.

[6] = molecular target: T3, α-rat CGRP (Rattus norvegicus, UniProt P01256); conditions: Table 6 reproduced from WO2007/054809; cited from earlier work
T3 sequence (P01256 83-119 limits assumed): T1 sequence (P06881 83-119 limits assumed) with A1S, D3N, N25D, K35E

[7] = molecular target: T4, rat α-CGRP (Rattus norvegicus, UniProt P01256); test: Biacore interaction analysis of Fab fragments, N-biotin α-rat CGRP on chip; assay type: binding
T4 sequence (P01256 83-119 limits assumed): T1 sequence (P06881 83-119 limits assumed) with A1S, D3N, N25D, K35E
Experimental: as §1, §2

[8] = molecular target: T1, human α-CGRP; test: Biacore interaction analysis of Fab fragments, N-biotin α-human/cyno CGRP on chip; assay type: binding
Experimental: as §1, §2

[9] = molecular target: T5, human α-CGRP binding to the CGRP1-receptor (Homo sapiens, UniProt P06881); test: Binding assay: blocking 125I-human α-CGRP from binding to CGRP1-receptor on SK-N-MC cell membranes; conditions: IC50 higher than Biacore KD at equivalent temperature
T5 construct: host or cells: receptor: endogenous, membranes of SK-N-MC cells
T5 sequence (P06881 83-119 limits assumed): T1 sequence (P06881 83-119 limits assumed)
Experimental: A binding assay was performed to measure the IC50 of anti-CGRP G1 antibody in blocking human α-CGRP from binding to the CGRP1-receptor. […] Incubation was terminated by filtration through a glass microfiber filter (GF/B, 1 μm) which had been blocked with 0.5% polyethylenimine. The protein-bound radioactivity was determined in a gamma counter.

[10] = molecular target: T6, human β-CGRP (Homo sapiens, UniProt P10092); test: Biacore interaction analysis of Fab fragments, N-biotin β-human/cyno CGRP on chip; assay type: binding; conditions: β-human/cyno CGRP, 37° C., 20 min dissociation
T6 construct: and
T6 sequence (P10092 82-118 limits assumed): T1 sequence (P06881 83-119 limits assumed) with D3N, V22M, N25S
Experimental: as §1, §2

For CGRP 8-37: a CGRP receptor antagonist, the half-life in-vivo [1] is given as “very short half-life in-vivo”, the “effect on visceral pain threshold, 4901 compared with CGRP 8-37” value [2] is given as “comparable” and the “reversing visceral hypersensitivity (VH)” value [3] is given as “effective in reversing visceral hypersensitivity (VH)”.
In the case of “G1: anti-CGRP antagonist antibody produced by expression vectors ATCC PTA-6867 and PTA-6866; VH SEQ ID NO: 1, VL SEQ ID NO: 2 [Clone G1]”, the “α-human koff” value [4] is given as 3.63e-05 s⁻¹, the “koff” value [5] is given as <7.85e-05 s⁻¹ and the “kon” value [5] is given as 516000 M⁻¹ s⁻¹. For the same substance, the “α-rat koff” value [6] was 0.000399 s⁻¹, the “koff” value ([7]; 25° C.) was 6.18e-05 s⁻¹ and the “kon” value ([7]; 25° C.) was 50800 M⁻¹ s⁻¹. For the same substance, the “koff” value ([7]; 37° C.) was 0.000399 s⁻¹, the “kon” value ([7]; 37° C.) was 155000 M⁻¹ s⁻¹ and the “koff” value ([8]; 25° C.) was 7.8e-06 s⁻¹. For the same substance, the “kon” value ([8]; 25° C.) was 186000 M⁻¹ s⁻¹, the “koff” value ([8]; 37° C.) was 3.63e-05 s⁻¹ and the “kon” value ([8]; 37° C.) was 587000 M⁻¹ s⁻¹. The “IC50 relative to KD observed by Biacore” value [9] was 23 fold, the “koff” value [10] was <6.98e-05 s⁻¹ and the “kon” value [10] was 451000 M⁻¹ s⁻¹.
